The record followed here is paper PMC8937303 (Molecular Cell, 2022).

Experiment [1] concerns the target T1, SHP2_(2SH2) (UniProt Q06124 1-221).
T1 sequence (looked up): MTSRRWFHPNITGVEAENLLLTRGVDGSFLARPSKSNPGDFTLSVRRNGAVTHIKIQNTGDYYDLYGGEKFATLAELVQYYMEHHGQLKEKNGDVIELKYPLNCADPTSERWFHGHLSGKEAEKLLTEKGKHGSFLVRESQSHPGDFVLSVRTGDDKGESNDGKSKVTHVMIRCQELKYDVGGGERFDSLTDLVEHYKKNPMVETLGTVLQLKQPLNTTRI
The experiment in a line: ITC.

For experiment [2], the target named is T1, SHP2_(2SH2). The experiment in a line: pull-down.
For a further experiment, the target named is T2, GST-SHP2 (UniProt Q06124 1-593).
T2 sequence (looked up): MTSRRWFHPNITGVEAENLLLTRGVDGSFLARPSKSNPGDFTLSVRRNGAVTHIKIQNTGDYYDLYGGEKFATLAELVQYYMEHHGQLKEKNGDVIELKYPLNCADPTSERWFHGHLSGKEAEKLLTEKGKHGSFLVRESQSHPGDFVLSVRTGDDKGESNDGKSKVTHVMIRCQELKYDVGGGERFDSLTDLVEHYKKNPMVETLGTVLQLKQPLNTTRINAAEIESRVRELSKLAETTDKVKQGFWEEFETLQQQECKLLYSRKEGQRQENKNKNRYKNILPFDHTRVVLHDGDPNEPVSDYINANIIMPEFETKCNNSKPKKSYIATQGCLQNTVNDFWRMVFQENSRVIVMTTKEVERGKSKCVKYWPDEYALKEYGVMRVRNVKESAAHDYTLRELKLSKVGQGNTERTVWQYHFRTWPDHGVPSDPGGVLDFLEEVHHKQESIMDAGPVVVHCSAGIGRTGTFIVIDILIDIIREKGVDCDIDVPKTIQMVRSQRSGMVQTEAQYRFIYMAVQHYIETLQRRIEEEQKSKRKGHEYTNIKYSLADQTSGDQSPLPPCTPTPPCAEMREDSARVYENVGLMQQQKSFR
The experiment in a line: pull-down.

B1: pFGFR2C58 (domain or fragment, UniProt P21802 764-821, looked up)
chain: TTNEEYLDLSQPLEQYSPSYPDTRSSCSSGDDSVFSPDPMPYEPCLPQYPHINGSVKT
modifications: tyrosine phosphorylated in vitro (sites not printed for the preparation)
On to B1, for which, in the experiment with SHP2_(2SH2) [1], the Kd is about 8 µM and the “stoichiometry N” value turned out to be 1.

B2: GST-pC58 (domain or fragment, UniProt P21802 763-821, looked up)
chain: LTTNEEYLDLSQPLEQYSPSYPDTRSSCSSGDDSVFSPDPMPYEPCLPQYPHINGSVKT
modifications: tyrosine phosphorylated in vitro
Take B2: the binding result with SHP2_(2SH2) [2] is recorded as “binds”.

B3: pFGFR2_(Cyto) (domain or fragment, UniProt P21802 400-821, looked up)
chain: MKNTTKKPDFSSQPAVHKLTKRIPLRRQVTVSAESSSSMNSNTPLVRITTRLSSTADTPMLAGVSEYELPEDPKWEFPRDKLTLGKPLGEGCFGQVVMAEAVGIDKDKPKEAVTVAVKMLKDDATEKDLSDLVSEMEMMKMIGKHKNIINLLGACTQDGPLYVIVEYASKGNLREYLRARRPPGMEYSYDINRVPEEQMTFKDLVSCTYQLARGMEYLASQKCIHRDLAARNVLVTENNVMKIADFGLARDINNIDYYKKTTNGRLPVKWMAPEALFDRVYTHQSDVWSFGVLMWEIFTLGGSPYPGIPVEELFKLLKEGHRMDKPANCTNELYMMMRDCWHAVPSQRPTFKQLVEDLDRILTLTTNEEYLDLSQPLEQYSPSYPDTRSSCSSGDDSVFSPDPMPYEPCLPQYPHINGSVKT
modifications: tyrosine phosphorylated in vitro (sites not printed for the preparation)
With B3, in the experiment with GST-SHP2, the binding result was “binds”.
